In patent US7189694B2, “Inhibitors of autophosphorylation protein kinases” (University of Florida Research Foundation, Inc., priority 2003, dated 2007):
“Also recorded” adds a separate entry of the source.

Legend:
[1] = target: T1, JAK2 WT peptide (JAK2 autophosphorylation site 1001LPQDKEYYKVKEP) (Homo sapiens, UniProt O60674); test: ELISA binding of biotinylated JAK2 WT peptide to solid-phase peptides
T1 construct: made in house; host or cells: chemical synthesis (Fmoc)
Description: (§1) Binding assays: For ELISA binding assays Tkip and other peptides to be tested were bound to 96-well plates in 0.1 M carbonate binding buffer (pH 9.6) at a final concentration of 3 μg/well (50 μl). Wells were then washed three times with wash buffer containing 0.9% NaCl and 0.05% tween-20 in PBS and blocked with 2% gelatin and 0.05% tween-20 in PBS for 1 h at room temperature. Wells were then washed three times with wash buffer and incubated with various concentrations of biotinylated JAK2 WT peptide and biotinylated P-JAK2 WT peptide for 1 h at room temperature in blocking buffer. Following incubation, wells were washed five times with wash buffer to remove any unbound biotinylated peptides. Bound biotinylated peptides were detected by incubation with a 1:500 dilution of NEUTRAVIDIN biotin binding-protein conjugated with horseradish peroxidase (Molecular Probes, Eugene, Oreg.) in blocking buffer for 1 h at room temperature. Wells were then washed five times with wash buffer and developed with a solution of o-phenylenediamine (OPD) in stable peroxidase buffer (Pierce, Rockford, Ill.). The assay was stopped with the addition of 2 M H2SO4 (50 μl) to each well. Absorbance was measured using a 450 microplate reader (Bio-rad, Hercules, Calif.) at 490 nm. Control experiments were carried out as described above in the absence of immobilized peptides.

recombinant human JAK2 = target: T2, recombinant human JAK2 (Homo sapiens, UniProt O60674); test: In vitro JAK2 kinase assay (32P, SDS-PAGE, autoradiography); format: biochemical; settings: peptide at 50 μM
T2 construct: purchased Upstate Biotechnology, Lake Placid, N.Y
Description: Determination of JAK2 autophosphorylation activity was performed in reaction mixtures containing recombinant human JAK2 immobilized on agarose beads (Upstate Biotechnology, Lake Placid, N.Y.), 1 μCi/μl of [^32P]γ-ATP (Amersham Biosciences, Piscataway, N.J.), and either Tkip or JAK 2 WT peptide incubated in kinase buffer (10 mM HEPES [pH 7.4], 50 mM sodium chloride, 0.1 mM sodium orthovanadate, 5 mM magnesium chloride, 5 mM manganese chloride). JAK2 kinase assays were performed in 35 μL reaction volumes containing 10.5 μL Tkip, 20 μL JAK2 agarose beads, 1 μL sIFNGR-1, and 3.5 μL [^32P]γ-ATP incubated at 30° C. for 30 min with intermittent agitation. […] EGFR, VEGFR, and JAK2 kinase reactions were terminated with the addition of 5 μl 6×SDS sample buffer (0.5 M Tris-HCl [pH 6.8], 36% glycerol, 10% SDS, 9.3% DTT, 0.012% bromophenol blue). Incubation of JAK2 agarose beads in SDS sample buffer (100° C.) was designed to elute bound proteins from the agarose beads. The reaction mixtures were separated on a 10% SDS polyacrilamide gel. Autoradiography was used to determine phosphorylation activity.

VEGFR = target: T3, VEGFR (Homo sapiens, UniProt P17948); test: In vitro VEGFR autophosphorylation kinase assay; format: biochemical; settings: peptide at 50 μM; FIG. 2B
T3 construct: purchased Calbiochem, San Diego, Calif
Description: (§2) In vitro Kinase Assays: Autophosphorylation activity of EGFR and VEGFR-1 was measured in a reaction mixture containing kinase buffer (20 mM Tris-HCl [pH 7.5], 2 mM dithioreitol, 50 mM potassium chloride, 0.3 mM sodium orthovanadate, 5 mM magnesium chloride, 10 mM glycerophosphate, 2 mM EGTA, […] manganese chloride), Tkip, substrates, and 5 μCi of [^32P]γ-ATP (specific activity 6000 Ci/mmol; 1 mCi=37 Mbq) (Amersham Biosciences, Piscataway, N.J.). EGFR and VEGFR in vitro kinase assays were carried out in 22.5 μL reaction volumes containing 10 μL Tkip, 2.5 μL substrates, and 10 μL [^32P]γ-ATP incubated at 30° C. for 10 min. EGFR (supplied precomplexed with EGF) was obtained from Upstate Biotechnology (Lake Placid, N.Y.). VEGFR and VEGF were obtained from Calbiochem (San Diego, Calif.) and Peprotech (Rocky Hill, N.J.), respectively.
(§3) Determination of JAK2 autophosphorylation activity was performed in reaction mixtures containing recombinant human JAK2 immobilized on agarose beads (Upstate Biotechnology, Lake Placid, N.Y.), 1 μCi/μl of [^32P]γ-ATP (Amersham Biosciences, Piscataway, N.J.), and either Tkip or JAK 2 WT peptide incubated in kinase buffer (10 mM HEPES [pH 7.4], 50 mM sodium chloride, 0.1 mM sodium orthovanadate, 5 mM magnesium chloride, 5 mM manganese chloride). […]

c-src = target: T4, c-src (Homo sapiens, UniProt P12931); test: Src kinase assay with substrate peptide (P81 discs); format: biochemical; settings: peptide at 50 μM; FIG. 2C
T4 construct: purchased Upstate Biotechnology, Lake Placid, N.Y
Description: (§4) Src kinase activity was performed with a Src substrate peptide (KVEKIGEGTYGVVYK) (SEQ ID NO. 73) using a Src kinase assay kit according to the manufacturer's specifications (Upstate Biotechnology, Lake Placid, N.Y.) according to the manufacturer's specifications. Briefly, Src substrate peptide was incubated in Src kinase buffer (100 mM Tris-HCl [pH 7.2], 125 mM MgCl2, 25 mM MnCl2, 2 mM EGTA, 0.02 mM Na3VO4, and 2 mM dithioreitol), 5 μCi of [^32P]γ-ATP (75 mM MnCl2, 500 μM ATP), recombinant human Src (Upstate Biotechnology, Lake Placid, N.Y.), and Tkip, JAK2 WT peptide, or in the absence of peptide for 10 min at 30° C. Reaction mixtures were spotted on P81 phosphocellulose discs (supplied with kit) to bind phosphorylated Src substrate peptide, washed three times for 5 min with 0.75% phosphoric acid, washed twice with acetone for 1 min, and placed in vials to which 4 ml of ScintiVerse® (Fisher, Pittsburgh, Pa.) was added. The phosphocellulose discs were analyzed using a liquid scintillation counter to measure ^32P-labeled proteins. For comparison with Src, JAK2 was also assayed using the same procedure. The assay was setup as described above for the Src kinase assay. However, reactions were incubated in the presence of 2 mM dithioreitol in the buffer to release JAK2 from the agarose beads. Following the appropriate incubation period reactions were gently centrifuged. […]

JAK2/IFNGR-1 = target: T5, JAK2/IFNGR-1 (Homo sapiens, UniProt O60674); test: JAK2 kinase assay processed on P81 phosphocellulose discs (32P incorporation); format: biochemical; settings: peptide at 50 μM; FIG. 2D
T5 construct: purchased Upstate Biotechnology, Lake Placid, N.Y
Description: as §4

EGFR = target: T6, EGFR (Homo sapiens, UniProt P00533); test: In vitro EGFR autophosphorylation kinase assay; format: biochemical; settings: peptide at 50 μM; FIG. 2E
T6 construct: human EGFR isolated from A431 cells; purchased Upstate Biotechnology, Lake Placid, N.Y; host or cells: A431 cells (endogenous receptor, isolated)
Description: as §2, §3

[2] = target: T7, p-JAK2 WT peptide (phosphorylated at 1007Y) (Homo sapiens, UniProt O60674); test: Solid phase binding of biotinylated phosphorylated JAK2 WT peptide to immobilized Tkip; settings: FIG. 4
T7 construct: made in house; host or cells: chemical synthesis (Fmoc)
Description: as §1

[3] = test system: experimental allergic encephalomyelitis; test: Experimental allergic encephalomyelitis (EAE) in MBP-immunized NZW mice; format: in vivo
Description: NZW mice were injected intraperitoneally with PBS or Tkip (63 μg/mouse) every other day starting the day of immunization with myelin basic protein (MBP) for induction of EAE. Mice were followed daily for signs of EAE, and mean severity of paralysis for each group was graded based on the following scale: 1, loss of tail tone, 2, hind leg weakness, 3, paraparesis, 4, paraplegia, 5, moribund, death. […] All mice in the control group had disease (disease incidence=4/4), while one mouse in the Tkip group had disease (disease incidence=1/5).
NZW mice were immunized with myelin basic protein (MBP) (300 ug) emulsified in complete Freund's adjuvant for the induction of experimental allergic encephalomyelitis (EAE). Tkip peptide (63 μg/mouse) was administered to mice every other day starting the day of immunization. Phosphate buffered saline (PBS) was used as the vehicle of transfer and as the control agent for the treatment of the control group. Mice were followed daily for signs of EAE and mean severity of paralysis for each group was graded based on the scale presented in the legend of FIG. 9. […] Furthermore, the mean severity of disease for the control group (2.1) was twice as high as that of the Tkip group (0.8) at its peak. The time of onset of disease for the control group and Tkip-treated group was similar (24 days post immnunization). Thus, treatment of MBP-immunized mice with Tkip peptide protects them from the autoimmune disease, EAE.

T2 sequence (O60674 whole entry): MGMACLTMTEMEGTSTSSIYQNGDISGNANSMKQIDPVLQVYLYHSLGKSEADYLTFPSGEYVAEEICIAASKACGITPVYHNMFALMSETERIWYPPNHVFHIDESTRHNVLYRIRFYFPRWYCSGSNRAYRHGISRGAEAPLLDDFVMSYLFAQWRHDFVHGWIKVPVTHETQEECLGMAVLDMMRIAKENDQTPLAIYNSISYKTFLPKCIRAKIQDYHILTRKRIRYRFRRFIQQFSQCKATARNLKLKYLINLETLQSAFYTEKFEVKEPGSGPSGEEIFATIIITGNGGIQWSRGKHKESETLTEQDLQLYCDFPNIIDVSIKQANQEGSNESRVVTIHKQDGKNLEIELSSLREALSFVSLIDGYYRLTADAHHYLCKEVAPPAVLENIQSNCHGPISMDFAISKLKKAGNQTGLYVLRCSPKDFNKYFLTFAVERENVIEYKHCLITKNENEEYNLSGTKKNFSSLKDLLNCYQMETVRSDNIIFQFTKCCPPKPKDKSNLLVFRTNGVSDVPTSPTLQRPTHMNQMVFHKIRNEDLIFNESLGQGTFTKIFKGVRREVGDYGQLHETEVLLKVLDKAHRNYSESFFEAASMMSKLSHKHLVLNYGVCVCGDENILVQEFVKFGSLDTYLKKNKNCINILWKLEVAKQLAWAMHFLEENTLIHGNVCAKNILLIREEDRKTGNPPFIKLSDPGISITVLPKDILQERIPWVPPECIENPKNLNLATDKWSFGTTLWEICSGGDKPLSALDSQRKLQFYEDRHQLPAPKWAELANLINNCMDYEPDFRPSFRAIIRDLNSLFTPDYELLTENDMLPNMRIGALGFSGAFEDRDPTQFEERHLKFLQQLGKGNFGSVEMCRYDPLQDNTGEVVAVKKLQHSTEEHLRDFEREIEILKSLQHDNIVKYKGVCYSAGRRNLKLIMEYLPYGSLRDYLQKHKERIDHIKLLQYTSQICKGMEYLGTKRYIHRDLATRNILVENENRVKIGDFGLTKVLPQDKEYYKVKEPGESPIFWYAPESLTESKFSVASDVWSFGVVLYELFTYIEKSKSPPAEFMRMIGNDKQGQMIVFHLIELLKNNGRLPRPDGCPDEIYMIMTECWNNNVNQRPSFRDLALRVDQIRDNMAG
T5 sequence (O60674 whole entry): as above
T3 sequence (P17948 27-1338): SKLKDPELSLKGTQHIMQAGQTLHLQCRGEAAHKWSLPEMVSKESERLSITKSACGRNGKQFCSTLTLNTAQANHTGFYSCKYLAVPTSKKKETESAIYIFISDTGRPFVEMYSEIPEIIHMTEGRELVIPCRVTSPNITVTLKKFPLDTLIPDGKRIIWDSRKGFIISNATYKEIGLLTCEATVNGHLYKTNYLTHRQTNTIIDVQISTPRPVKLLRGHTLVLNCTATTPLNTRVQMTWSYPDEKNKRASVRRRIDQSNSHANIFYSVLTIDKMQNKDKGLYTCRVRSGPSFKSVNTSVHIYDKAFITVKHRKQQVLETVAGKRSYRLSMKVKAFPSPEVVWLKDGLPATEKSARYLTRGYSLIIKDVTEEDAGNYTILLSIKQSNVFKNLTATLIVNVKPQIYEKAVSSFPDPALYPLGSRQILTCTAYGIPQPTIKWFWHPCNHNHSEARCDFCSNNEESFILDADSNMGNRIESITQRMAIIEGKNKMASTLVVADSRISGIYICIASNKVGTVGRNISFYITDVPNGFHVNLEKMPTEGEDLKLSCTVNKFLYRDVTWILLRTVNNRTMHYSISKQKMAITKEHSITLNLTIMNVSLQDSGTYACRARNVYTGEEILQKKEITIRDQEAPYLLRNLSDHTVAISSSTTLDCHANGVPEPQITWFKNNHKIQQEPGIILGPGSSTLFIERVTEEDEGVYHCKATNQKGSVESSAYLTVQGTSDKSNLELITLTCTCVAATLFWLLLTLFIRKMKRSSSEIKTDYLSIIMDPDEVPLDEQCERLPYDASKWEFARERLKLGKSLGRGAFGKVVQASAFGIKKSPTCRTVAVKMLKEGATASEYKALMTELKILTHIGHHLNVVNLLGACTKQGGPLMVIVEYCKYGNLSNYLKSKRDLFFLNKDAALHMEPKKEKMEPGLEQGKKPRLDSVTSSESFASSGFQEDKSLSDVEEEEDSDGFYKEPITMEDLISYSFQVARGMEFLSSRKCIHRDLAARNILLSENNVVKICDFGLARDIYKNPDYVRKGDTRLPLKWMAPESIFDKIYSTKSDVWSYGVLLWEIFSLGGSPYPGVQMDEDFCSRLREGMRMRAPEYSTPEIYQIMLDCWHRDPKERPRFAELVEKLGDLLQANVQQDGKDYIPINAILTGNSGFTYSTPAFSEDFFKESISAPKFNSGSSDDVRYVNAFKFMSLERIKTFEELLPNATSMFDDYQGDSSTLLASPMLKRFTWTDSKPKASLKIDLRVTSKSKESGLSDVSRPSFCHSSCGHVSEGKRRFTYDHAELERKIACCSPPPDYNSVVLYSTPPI

In the case of “WLVFFVIFYFFR (amino acid sequence of a peptide that can be used according to the present invention) [Tkip]”, the “binding of biotinylated JAK2 WT peptide to solid-phase peptide” value ([1]; FIG. 1A, ELISA, peptides coated on 96-well plates) is reported as “bound only to Tkip peptide in a dose-dependent manner”, the “binding of Tkip to unphosphorylated JAK2 WT” value ([1]; FIG. 4, immobilized Tkip) is reported as “bound both JAK2 WT and p-JAK2 WT in a dose-dependent manner” and the “inhibition of JAK2 autophosphorylation” value (recombinant human JAK2) is reported as “completely inhibited; also recorded: also inhibited”. For the same sequence, the “inhibition of JAK2 phosphorylation of IFNGR-1” value (recombinant human JAK2) was “completely inhibited; also recorded: also inhibited”, the “inhibition of VEGFR autophosphorylation” value (VEGFR) was “did not inhibit” and the “inhibition of c-src phosphorylation of a protein substrate” value (c-src) was “failed to inhibit”. The “inhibition of 32P incorporation into JAK2/IFNGR-1” value (JAK2/IFNGR-1) was “greater than 95%”, the “inhibition of EGFR autophosphorylation” value (EGFR) was “completely inhibited” and the “fifty percent endpoint concentration, fold lower for p-JAK2 WT binding versus unphosphorylated JAK2 WT binding” value [2] was “approximately 9 fold”. The “binding of Tkip to p-JAK2 WT” value ([2]; immobilized Tkip) was “binding was most efficient to p-JAK2 WT”, the “time of onset of disease” value ([3]; 63 μg/mouse every other day) was 24 days post immnunization and the “mean severity of disease (paralysis scale 1-5)” value ([3]; 63 μg/mouse every other day, at its peak) was 0.8. For the same sequence, the “incidence of disease (EAE)” value ([3]; 63 μg/mouse intraperitoneally every other day from day of immunization) was 1/5.
